Data published in US20190202920A1 (F STAR BETA, published 2019).
Numbering of substitutions follows the chain as printed. One block for each binder: values may come before it.

Experiments:
[1] = molecular target: T1, cell surface EGFR on human cancer cell lines (A431NS, MDA-MB-468, U87MG) (human, UniProt P00533 25-1210); experiment: flow cytometry, blocking of biotinylated EGF binding to MDA-MB-468 cells
T1 construct: whole, on cells; The cell line of each entry is named under assay; also called EGFR on A431NS cells; EGFR on MDA-MB-468 cells

[2] = molecular target: T2, His-tagged human EGFR (Sino Biological) (human, UniProt P00533 25-645); experiment: SPR (BIAcore T200), mAb^2 captured on anti-human Fab chip, His-tagged human EGFR as analyte, 1:1 fit
T2 construct: also called His-tagged EGFR

[3] = molecular target: T3, cell surface EGFR on HCC827 cells (E746-A750 deletion) (UniProt P00533 25-1210); experiment: flow cytometry on HCC827 cells
T3 construct: whole, on cells; Residues E746-A750 are deleted; a deletion cannot be written as a substitution

[4] = molecular target: T4, cell surface EGFR on NCI-H1975 cells (mutated EGFR L858R and T790M) (UniProt P00533 25-1210, limits assumed); experiment: flow cytometry on NCI-H1975 cells
T4 construct: whole, on cells

IC50 [1]: 0.45 nM | Kd [2]: 3.6 nM
B1: mAb^2 RI/FS1-60 (bispecific antibody, human IgG2, kappa)
heavy: QVQLQESGPGLVKPSETLSLTCTVSGGSISIYYWSWIRQPPGKGLEWIGYVYYSGSTNYNPSLKSRVTISVDTSKNQFSLKLNSVTAADTAVYYCARGGYDFWSGYFDYWGQGTLVTVSSASTKGPSVFPLAPCSRSTSESTAALGCLVKDYFPEPVTVSWNSGALTSGVHTFPAVLQSSGLYSLSSVVTVPSSNFGTQTYTCNVDHKPSNTKVDKTVERKCCVECPPCPAPPVAGPSVFLFPPKPKDTLMISRTPEVTCVVVDVSHEDPEVQFNWYVDGVEVHNAKTKPREEQFNSTFRVVSVLTVVHQDWLNGKEYKCKVSNKGLPAPIEKTISKTKGQPREPQVYTLPPSRDELDEGGPVSLTCLVKGFYPSDIAVEWESTYGPENNYKTTPPVLDSDGSFFLYSRLTVSHWRWYSGNVFSCSVMHEALHNHYTQKSLSLSPG
light: not shown

Kd [2]: 1.8 nM | EC50 [3]: 3.56 nM | EC50 [4]: 2.16 nM
B2: mAb^2 RI/FS1-65 (bispecific antibody, human IgG2, kappa)
heavy: B1 heavy with R409K, H414Y, Y418V, S419K
light: not shown

IC50 [1]: 0.71 nM | Kd [2]: 3.5 nM
B3: mAb^2 FI/FS1-60 (bispecific antibody, human IgG1, kappa)
heavy: QVQLVQPGAEVKKPGTSVKLSCKASGYTFTTYWMHWVRQAPGQGLEWIGEINPTNGHTNYNQKFQGRATLTVDKSTSTAYMELSSLRSEDTAVYYCARNYVGSIFDYWGQGTLLTVSSASTKGPSVFPLAPSSKSTSGGTAALGCLVKDYFPEPVTVSWNSGALTSGVHTFPAVLQSSGLYSLSSVVTVPSSSLGTQTYICNVNHKPSNTKVDKRVEPKSCDKTHTCPPCPAPELLGGPSVFLFPPKPKDTLMISRTPEVTCVVVDVSHEDPEVKFNWYVDGVEVHNAKTKPREEQYNSTYRVVSVLTVLHQDWLNGKEYKCKVSNKALPAPIEKTISKAKGQPREPQVYTLPPSRDELDEGGPVSLTCLVKGFYPSDIAVEWESTYGPENNYKTTPPVLDSDGSFFLYSRLTVSHWRWYSGNVFSCSVMHEALHNHYTQKSLSLSPG
light: DIVMTQSPDSLAMSLGERVTLNCKASENVVSYVSWYQQKPGQSPKLLIYGASNRESGVPDRFSGSGSATDFTLTISSVQAEDVADYHCGQSYNYPYTFGQGTKLEIKRTVAAPSVFIFPPSDEQLKSGTASVVCLLNNFYPREAKVQWKVDNALQSGNSQESVTEQDSKDSTYSLSSTLTLSKADYEKHKVYACEVTHQGLSSPVTKSFNRGEC
